Reference: a protein production outcome set (Wang et al. 2014)

Test: label from the status in PepcDB records
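Note: failed if final PepcDB status was selected cloned or expressed and not failed if soluble or beyond.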

Sequence	protein production
MPSHTDENWELAIQTPAITDRSLAAGLAYAMGSRVNGISFDAATGLLMGKVRGTGPQPYSTSAKLVRKPSGWSCTVGICNCPVRKDCKHVAALLFTAEDHPTIRAQLLSQAPGIQTSRVGSGQQGGSARPAWEQALNRLITKPGTAPSAAGIPLALQFEVEEPAAHFSYTGRRDPMRSVRQLKARPVMMGAKGKWIRGDVSWNNLSYVSFRREFNEVHVEWLQTFLAAHGSSNGRQQPSGAMWLSLNDFAAKNLWTLLAEATKAGIPLIHSAGSEPVRVETQPAVVGLSLARLATDPDTAKHEAPDGGLQLAPSVTLGGEAVDPGSVGFLGKPANGIFFTHSGDSLPGVPQQKNLITLAPMEGGISDELLEFVMDGDTLQIPAEDESRFLTSFYPKLRQSTPVQAADESVELPTLAVPTLSLLANYGNDHKVRLHWEWHYKSGTLVTSQPLWRHPDDRGYRDDLEEARILESLGRPWDVVPALAESATGGWGAPRIAASAELSGLDTLAFTEEVLPALKDLPDVVVETSGDIADYREAAEAPVVSISTKETASGDWFDLGIVITLEGEPVSFAAVFSALAAGMSRMLLPSGAYFSLDLPELHQLRALIDEARSLQDNPDNKDGTLQISRFQAGLWDELAQLGIVDEQAAAWREAVGGLLDDGVTGLPLPAGLNAELRPYQLEGFNWLSFLYKHSLGGVLADDMGLGKTVQAIALICAAKDLAAETAAAAQGDASEVVPRAPFLVVAPTSVVSNWAAEAQRFAPGLVVRTVGETFAKSGMAPAEALAGADVVITSYALFRIDYDAYASFQWAGLMLDEAQFVKNHQSKAYQCARKLPARFKLAITGTPLENNLMEFWALTSIVAPGLFPSPKRFAENYQKPVEKNGDSAQLGKLRRRVRPLMMRRTKEQVIKDLPPKQEQILEVVLNPRHQKVYQTHLQRERQKILGLIDDVNKNRFTIFQSLTLLRQLSLDASLVDSSLSGVRSSKLDVLFEQLEDLISEGHRALIFSQFTGFLGKVRERLDAEGVEYCYLDGSTRNRGDVVSEFKNGAAPVFLISLKAGGFGLNLTEADYVFLLDPWWNPASEAQAVDRTHRIGQARNVMVYRLVAKDTIEEKVMALKAKKSQLFADVMEGDALAGGSLTADDLAALFAE	failed
MPSPSGSSTLSKPAPRFASIGSPYFGIMLAIMAVVLILSNIGASKGVVLGPIITDGGFFLFPLAYILGDVMSEVYGFKVARKAIITSFALSVFASLCYWIIIVLPGFNDEYGTAKQAAIEGALGPVPLIVLGSLLAFLAGQTINSWILVKMKARTGEKSLWARLMGSSVVGEFVDTLIFCSIAASVIGITDFGSFLNYVLVGFVYKTAVEFLFVPVTVLVVGWIKKREPSYGVVAA	failed
MPSSGQLYGDEERELTPTPAIPEEGVYEVKYSNRRTNVVRLLPNGFQERKLRRLANLSAKLFNEVNFERRQQFFHEGKVNIEETYKKYYEKYKVILGVNAQAVLNKNNEAWSSFFSLLKLKKEGKLPPHMNHVSPPGYWKDREAGKRKQILVIRQDRYKVDAENHKLILKDFDMEIDFIGRLKWYGKQGRLEIIFDETRNAWYAHIPIEVGVEETKAGKKSKHVVKGERKSIQISKPKGNKVASIDLGINVIASVVVNDGTWLLYKGVRTKEDYFYFQKRIAEVQSLADRTRNIGEYDAYLELLREKRRLFKKLTRRLTHLYRNLASHLIETLYELGVSTIYLGYPFNIVQEKGNKFTVNMWSYRKLMESIELKAQEYGMKVFEVVEYNTSKYCAYHDVEVKRNPRGVINCPLGHKLHSDLNGALNILKKALGVIVNAVKKPLSFIVDHNRVAPIKGCNPLEHHHHHH	failed
MPSSTTVPTRRGLVSGPSSSDAHGDMPAVSVIMNCLNCERDLAEAIGSVFAQTFDDWEIVFWDNGSTDRSAEIAQGFGERVRYFRATETVPLGAARNLAIAKARGEFIAFLDCDDVWLPEKLERQVALFRANPRVGLVCTDTVMFTGAKDLNRLFEHAHPARGHVFRELMTTQWISMSSAVIRRNALDGMDHWFDESLNVCEEADVFYRIAWDWELDHVDAPLTRWRVHGANTTFRKFGQFAEETLRILDKHRAMYPGYDERYADLVALLRRRAAFQRAVALWREGRGAEARATIAPFDASPKFRLFRLATYLPGALFDPLARLYFALPAFLRRLEHHHHHH	failed
MPTFLAALLTGLFNLCKSKLGYFVATAFVWLGINWGSYHFVISPLVEQLYTYVDSVGTAGGRFGELALRALGLLNFDRALTMIISAYVSRFAMLNGRLYLFKRGYGVAPPASPKHEPFIPPAG	failed
MPTINQLIRYGRKPKKKKSKAPALQGNPQKRGVCIKVSTMTPKKPNSALRKIARVRLSNGIEVTAYIPGIGHNLQEHSVVLVRGGRVKDLPGVRYKIIRGALDAAGVEGRRQSRSKYGAKRPKDQKK	failed
MPTKTLRIPTTDGQADAFAAFPDHSERYPGVLMYADGFGIRPVLREMALELAGHGYYVLVPNSFYRHGPAPLVELPEYIGEGIRPAVFAQLMPLIEAHTAERVLSDADAYLRFLTTQPEVGAGPVAVTGYCIGGLYAMRTAAAHPDQVAAVAAFHGPVGVDGANLFSKLTAQVHLGHAEGDMTPEALGELNQALDAAGVGYTSEIYPGTIHGFTMSDTDAYSAFGLKRHWDRLLPLLDRTL	failed
MPTKTYSEEFKRDAVALYENSDGASLQQIANDLGINRVTLKNWIIKYGSNHNVQGTTPSAAVSEAEQIRQLKKENALQRARTRHPAESCLEHHHHHH	not failed
MPTLGFRFRAHTDEQTLRALKAQLKLACEVYNTLRWADIYFYQRDGKGLTQTELRQLALDLRKQDDEYKQVYSQVVQQIADRYYEARQRFFEGLARFPKEKKPHKYYSLVYPQYGWKILQVREIRKGSKKKLITLKLSNLGVFKVIVHRDFPLDKVKRVVVKLTRSERIYITFVVEGYEFPKLPNTGKVVAIDVGVEKLLVTSDSEYFPNLRPLEKALWKVKHLHRELSRKKFLSNNWFKAKVKLARAYEHLKNLRTDLYMKLGKWFAEHYDVVVMEDIHVKQLIGKSLRSLRRRLSDVAFSELRDLIKYQLEKYGKKLILVNPAYTSKTCARCGYVKEDLSLSDRVFVCSNCGWIADRDYNASLNILRGSGSERSLVPVELRPLPVPALRYWHGRAVKLEHHHHHH	failed
MPTLLNIQEFNKLNMNTILHITKRQQWEQAKNVGSYHADSLDTEGFIHSSKSIQILKVANRFFHHQTELVLLFIDSDQVKPEIRYEAADGDLFPHIYGELNLDAVYQVIDFEPGEDGLFEVPPEVVSLG	failed
MPTPADDLVVIGKIVSVYGIRGEVKVYSFTDPLDNLLDYRRWTLRRDGEIRQAELVRGRLHGKVLAAKLKGLDDREEARTFTGYEICIPRSELPSLEEGEYYWHQLEGLKVIDQGRQLLGVIDHLLETGANDVMVVKPCAGSLDDRERLLPYTGQCVLSIDLAAGEMRVDWDADF	not failed
MPTTSRPALDVKGGTSPAKEDANQEMSSVAYSNLAVKDRKAVAILHYPGVASNGTKASGAPTSSSGSPIGSPTTTPPTKPPSFNLHPAPHLLASMQLQKLNSQYQGMAAATPGQPGEAGPLQNWDFGAQAGGAESLSPSAGAQSPAIIDSDPVDEEVLMSLVVELGLDRANELPELWLGQNEFDFTADFPSSC	failed
MPTVAPTTVKPTTIPKETTTIAFTTDSSIEKPFGLDVSQASVGYVNIVWGRGTIDCYNVYVDGERRRTGISAQSLKLPVYTEGTHTIAITTVVGTRESEKLEVQVAITGTGEKETEPETCPEELKPQLKKNVPLRDDRIAIELNNKTNGKYSDSEIYWCILGNNENNQLCYMDKDGNMIPASESLNTVEVNGTKYANIYHTLAESDHVYAPTIRSGRMYLSYGKPVYVKFNGSTGYAGPDLNNPGDVNANTLFEFAEFTIEGKNYWGNTTRVDYFCFPMVTRLIGGSLYGGYDNVVGDIGTRDEIFTAFKNEVPNEYKSLVRDDRIIAPCKSTFNVGQDNGNYFDNYINEFWNKYANEDLRFSSESGSFVGRVVGNQMRFTREGDSTVYYVDKPNTQEVLEGKGAFDRGNGVEKAIEAQLCAAFNRGVATEPDKWYTPSQYYKNSVANFYAGFFHEHSVLGKAYGFCYDDVNDQSTLLQYNKADALVIDLKW	failed
MPVAEQPYHHGSLRRVLLARAESTLEKDGVDGLSLRQLAREAGVSHAAPSKHFRDRQALLDALAESGFLRLTAALERAVEEAESHARARFAALAGAYVSFALAHRELLALMYGNKHAPGAASQVVEAGHASMDLTVRIVTEAQAAGDIGPGDASRIALVAFATFHGIATLAAGGMLDGAPVDEVVTAASDTFWRGLAQA	not failed
MPVAKKYFEIRWHGRAGQGAKSASQMLAEAALEAGKYVQAFPEYGAERTGAPMRAFNRIGDEYIRVRSAVENPDVVVVIDETLLSPAIVEGLSEDGILLVNTVKDFEFVRKKTGFNGKICVVDATDIALQEIKRGIPNTPMLGALVRVTGIVPLEAIEKRIEKMFGKKFPQEVIDANKRALRRGYEEVKCSE	not failed
MPVAVVANPKGGVGKTTLATNLAGYFAARDHAVMLGDTDRQQSSREWLALRPATARPIHTWDISADHIAKPPKGTTHVVLDTPAGLHGWRLADLIRLAGHVIVPLQPSMFDILATQAFLCKLADEKPVRHGEAKVGVVGMRVDMRTRAAEQLQRFVQGLQIPILGYLRDTQNYVQLAAHGLTLWDVAPSRVARDVEQWRGILDWMAPGGITASPDSM	failed
MPVCILLLRFRDDVHNERFYTLVGIFIVGALCLMILGGTFFYIEYKRAQKQTFVMFFKGSLKGLVTTAPVTYRGVKIGEVKVIEITENKEHSKVLIPVYVQFFVERTYGFSQDPIHLLIDNGYVANITKPNLLTGVAEIELIKPTPAVKYKQTYYHSYPVFPTHNSAEKYTSMEEAFEAAKKAFEDVSELVRSKEIQDTLEAIQKVSENLGQLASSLNQDVPSVVAYLNQSLKQITSAAYSTQNLTDYLSRYPESLLRGKRLEHHHHHH	failed
MPVGGLLPLFSSPGGGGLGSGLGGGLGGGRKGSGPAAFRLTEKFVLLLVFSAFITLCFGAIFFLPDSSKLLSGVLFHSNPALQPPAEHKPGLGARAEDAAEGRVRHREEGAPGDPGAGLEDNLARIRENHERALREAKETLQKLPEEIQRDILLEKEKVAQDQLRDKDLFRGLPKVDFLPPVGVENREPADATIREKRAKIKEMMTHAWNNYKRYAWGLNELKPISKEGHSSSLFGNIKGATIVDALDTLFIMGMKTEFQEAKSWIKKYLDFNVNAEVSVFEVNIRFVGGLLSAYYLSGEEIFRKKAVELGVKLLPAFHTPSGIPWALLNMKSGIGRNWPWASGGSSILAEFGTLHLEFMHLSHLSGDPVFAEKVMKIRTVLNKLDKPEGLYPNYLNPSSGQWGQHHVSVGGLGDSFYEYLLKAWLMSDKTDLEAKKMYFDAVQAIETHLIRKSSGGLTYIAEWKGGLLEHKMGHLTCFAGGMFALGADGAPEARAQHYLELGAEIARTCHESYNRTYVKLGPEAFRFDGGVEAIATRQNEKYYILRPEVIETYMYMWRLTHDPKYRTWAWEAVEALESHCRVNGGYSGLRDVYIARESYDDVQQSFFLAETLKYLYLIFSDDDLLPLEHWIFNTEAHPFPILREQKKEIDGKEK	not failed
MPVKKLKQFLDSHKIKYLSIAHSPAYTAQEIAASAHVSGKQLAKTVIIKMDGRLAMVVLPASDHITFMKLKEAIGTSDLELATESEFEGKFAECDVGAMPPFGNLYGLPVLVSTKLSAQDNILFNAGSHSELMQLSFGDFEKLVKPTLVTL	not failed
MPVLLSRLASRTNPSLANRCAMDTWLRSAIDYISSWIEFQQTTIQQPGVIVAFAHRGEVVAEHAFGVANLDTGEKLTPRHRCRIASHSKSFTSAGIMKLREQRKLRLDDSVGQYVGGLHPRVAETTIAQLLSHSAGLTRDGADSGQFIDRRPYLNAEELLAELKLPTAIEPGTRFKYSNHGFGLLGLVIEAVTKEPYTAWIKREIIEPAGLRETEPDAPLPKGAAFARGHTRKVPLGERCVIPGDNPTHAMASATGFAATAADTARFFAQLAPNARKSVLSVASRREMTRHHWRIPQSFEAYYGLGIGAGKLDGWDWLGHGGHFQGYISRTCAIPACELAISIISNSIDGAAPFWMDGAMQILRTFKTRGAPDRRVRDWTGRWWTIWGATDLVPMGDRVLIANPQFNNPFMDAGEIEVTGRDTGRIAAAAGHSSHGEPVRRVRDARGKVSDIWLAGANVKPASVVAREIARQYPPRKRRPTP	failed
